# Data: the DeepSol protein solubility set
# Experiment: soluble on expression in E. coli; label from the status in PepcDB or PDB records
row,Sequence,soluble on expression in E. coli
1,MGSDKIHHHHHHMSNQFMFADETSQQTTKLPTEYWKILIVDDEPEVHAVTKLALNDFNFLGRGLKFYSAFSGEEAKRLIDEHPDAAILLLDVVMETDDAGLQVARYIREEADNHFTRIILRTGQPGQAPERTVIVNYDINDYKSKTELTAQKLFTAVMSSLRSYRDIMSIDQSRHGLEKIIAASANLYALQPMNSFVDGLVQQLSWVIGGAKQTLYATSNEDGSSYKVLAAHGEDSGVCVGQTLRSVIPSKALAELEHVIANHGSYYGDDFVLLYCRSHCRSHGSVLFIGGLSRALTADDHHVLQLFSENVQLAQDNVVCLEDSDQFLARLADQLMLHHASHFNGILEQNSEVRLAYAVAQKVAAEDAETTALAWSLFAQARPLLNCASDAAAAVETTCQQRVARSLRALGHGEHEATQNAHRALIERLERWDGLGLPEGKQGSDIAISTQVLLLTEQLLDWWESGISDSDIAVRLKDERGRYYSPKFLDVVIKSLPELRTI,not soluble
2,MGSDKIHHHHHHMKKKFQLEVPGGADKVLLHTCCAPCSSAIIECLMQHGVTPVIYYCNPNIYPLEEYIIRKDECTRYAQSLGLEIIDADYDHDAWRCRMAGMEQEPERGGRCLRCFKMRLQETARYAHEHGFPVITTTLASSRWKSLEQIEEAGRYATAPYPDVTYWEQNWRKGGLSERRIAIIKEYNFYNQQYCGCEFSMRKEEKGG,not soluble
3,MAHHHHHHMTMFGKIHVYKRTYEICSIILKNYFVYYHPLYLDFYLSFAWYNKGSNNEKAFLHFLREFILLQINVCSKRCREKKMEILKMNENFEHLVFSIIFKNNKEEEDNKNKYDINENVNIRRLDNYVSSSFLNDICYPHCNIYNENKNFDILKNFDFLKSNILLASSLHYFINSLFCYYNNDDFINKYKSTDFIFDSILLCIKSLESVKRTYRLSTYTEKGFGNVCLDISLMIIKLKLKHPKFLEKKDNWMLYALRNAMEAEEVTEKK,not soluble
4,MNLMNVADKVIKSAFESDEVFQKTLSAVIKEDLNLTAVDFAKKANIPPSTLYKILSGNRDPNIKTLRQIVKTIRDIKESDSGEFIAVIAARSVLDNIVETKKKIGGRLVTIREYSATSMEDAIISAVNAERDGAKALVCAPIVGPTVEKILNIPVTTIAPKNSLIDAIERALKKME,not soluble
5,MASMTGGQQMGRGSPNMLRKRQMTVLDLHPGSGKTRKILPQIIKDAIQQRLRTAVLAPTRVVAAEMAEALRGLPVRYQTSAVQREHQGNEIVDVMCHATLTHRLMSPNRVPNYNLFVMDEAHFTDPASIAARGYIATKVELGEAAAIFMTATPPGTTDPFPDSNAPIHDLQDEIPDRAWSSGYEWITEYAGKTVWFVASVKMGNEIAMCLQRAGKKVIQLNRKSYDTEYPKCKNGDWDFVITTDISEMGANFGASRVIDCRKSVKPTILEEGEGRVILGNPSPITSASAAQRRGRVGRNPNQVGDEYHYGGATSEDDSNLAHWTEAKIMLDNIHMPNGLVAQLYGPEREKAFTMDGEYRLRGEEKKNFLELLRTADLPVWLAYKVASNGIQYTDRKWCFDGPRTNAILEDNIEVEIVTRMGERKILKPRWLDARVYADHQALKWFKDFAAGKRHHHHHH,soluble
6,MFSENLKKCRKQKKLTQQNMADKLGITRPAYTAYELGSREPDYKTLINISNILDVSLDYLLKGESNEKVFQDEAKKVLNDPETFLAAKDGEVTDEILQAALEIITEQLKERRKSDK,not soluble
7,MSLGKDIKVGYNWELSGNVSSYGNSMKNGADLAVKEINAAGGVGGKKLKVLSQDNKSENAEAATVATNLVTKGANVIIGPATSGAAASSTPKVNAAAVPMIAPAATQDNLVYGSDGKTLNQYFFRATFVDNYQGKLLSQYATDNLKAKKVVLFYDNSSDYSKGVAKSFKESYSGKIVDSMTFSAGDTDFQASLTKLKGKEYDAIVMPGYYTETGLIVKQARDLGISKPVLGPDGFDSPKFVQSATPVGASNVYYLTGFTTQGSTKAKAFHDHYVKAYGEEPSMFSALSYDAVYMAAKSAKGAKTSIDIKKALAKLKDFKGVTGKMSIDKNHNVVKSAYVVKLEDGKTSSVNIISAKEGHHHHHH,soluble
8,SIVLEPIYWNSSNSKFLPGQGLVLYPQIGDKLDIICPKVDSKTVGQYEYYKVYMVDKDQADRCTIKKENTPLLNCAKPDQDIKFTIKFQEFSPNLWGLEFQKNKDYYIISTSNGSLEGLDNQEGGVCQTRAMKILMKVGQDAS,soluble
9,MANEKQYPMTKEGKEKLEQELEYLKTVKRKEVVERIKIARGFGDLSENSEYDAAKDEQAFVESRIQMLENMIRNAVIIEEDKENPDVVSLGKSVTFIELPDGEEETYTIVGSAEADPFEGKISNDSPIAKSLLGRRVGDEVTVQTPGGEMLVKIVAVK,soluble
10,MGSDKIHHHHHHMTQQTIYHIGTPGTPWGATEKAQWLAEQTKKRSYFDDVVSKIETFKSDFDVDQYGELAYDSGTYPLFVVRTKNWDDSKPTVLVTGGVHGYETSGVHGALRFIETKAKDYQPHFNVVVAPCLSPWGYETINRWNPAAIDPNRSFVADSPAGECAHIMNYVAGLGVDILAHIDLHETTDTDNSEFRPAKAAMDGKVNTNWNIPDGFYLVGNSEKPYPEFQKAVLDSVEEVTHIADADDENKLIGEDIAQRGVILLPTAKMGLCISFSKAEYATTTEVYPDSPKATPEQCIQAQVAAVTGGLDFLK,not soluble
11,MPQNQSDRLKPKGSGDGPLGTALGRGAGVASDLWRRIRTRALSAIGPEAEAQLYEVHKEWLGDLSGKKVLEIGGGSPLSPWLADTARTYHAVSADPAELEALKVRLGEGRTARLIEADPMSGAFRETGYDVIYLHSVLHRMADRGPFLDRLLKKLAIEGRVVTTDPADGGALTRLVRTIDRPFRAESLPDHPVTEELKAELAERFYLINCVAPFRLGKAALVLGALHPELGRRVSERLIAADLKDRAAFNRLNASLQVSFLLGAPD,not soluble
12,MHIRLTLPFYIYPFHFFRGSKMVKIPKSHPRYWSLLYREKIIRGMEEGITAKAGLIAHGRGEAFDYLIGERTIPPAEEAMKVAVAKLLLANHPVISVNGNVAALVPRETVELAKVTRAKLEVNLFYRTEERVKKIAEVLKKTGAKEVLGLNPTKRIPGLESERGKVEEDGIWKADVVLVPLEDGDRTEALVRMGKFVITVDLNPLSRSARMANVTIVDNIIRAYPRMIELAKEMRDYSREELEEIVNNYDNNKILSEVLLHIRRRLEELAKEGLEHHHHHH,not soluble
13,MGSDKIHHHHHHMTHSTDITTLARWFAADFSNQQQAFDNPPLFAHIRVCMRPLPYQLLNGLSLYLEQAYDITLNQPYRVRVLKLVPSENHIEIENYIIDQEAEFYGASRDPQRLKNLKTEYIKKLPGCTFITKWTGKSFKGEVEPGKGCTVVREGKSTYLKSYFEINEHKFISHDTGYDPETDQQVWGAIAGPFEFVRWASFADEVI,not soluble
14,QIYSARYSGVDVYEFIHSTGSIMKRKKDDWVNATHILKAANFAKAKRTRILEKEVLKETHEKVQGGFGKYQGTWVPLNIAKQLAEKFSVYDQLKPLFDF,soluble
15,HWPPLGIVRDLWTESGIGPERVAVMERVAGPKCCLLGRQNDRPSGAAFVGLAGPFAMLHALEVTPALRRLGSAQAMIRRGACWAEAAGAHWFSLVVTTANAPARALYEALGMEEVGHYHYRLK,not soluble
16,GNYPRNVGLSPLSGVDPSEVFDVTPYAVATDKYFIKNATTYHLPRKLKVSYSNCYTDTAHCSIQDLGFVATLKNDEPYFRVFLGGGLGKQPKVALELDELIKPKDALYCVEGMIKFFMDYGNYENKNRARVRYMVESLGEELFLEKFKEYYKLEKENGSLELNI,not soluble
17,MENGCGKMESFSPQALEMIRSLGTTHIWYIGMLEQATQTNYSDAGILPCHPEIVKGKAGSPYAVRDYYDVSPELATNIPNRMAEFHDLIERTHRAGMGVIMDFVPNHVAREYRSDVKPSGTKDLGEEDDPLVAFSPNNNFYYLPGKCLELDFGERSRTMMPYHEEPARATGNDRFSSHIDKEDWYETVKLNYGIDYLNGGSKHFDPLPDTWIRMRDILLFWASKGIDGFRCDMAEMVPVKFWEWAIPQIRERHSVLFIAEIYRPELYESYLQAGFDYLYDKVGMYDCLRTVICGYGSASDISRVVRQTERFADNMLYFLENHDEQRIASDFFAEDARKALPAVTIAATIGRNPFMLYFAQELGERGMDAEGFSGKDGRTTIFDYWSLDKMQRRINDGRYDTTMLSEEERLLLQSYTRLLHDVCALPSVIQGSFYDLGYANQNNPYFRPNREFAFLRHTTDEILLVAANFAPHEAEIRVIIPEHAFQTMQIKDNAAFLLTDMLSGENSIGCLTQYAPYPLHLPAYGYALHRFRPL,not soluble
18,SSTAGDGERGTVGQEDSAAARPFRFSPEPTLEDIRRLHAEFAAERDWEQFHQPRNLLLALVGEVGELAELFQWKSDTEPGPQAWPPKERAALQEELSDVLIYLVALAARCHVDLPQAVISKMDTNRQRYPVHLSRGSACKYTDLPRGTISENQAVGAGDPASELRDQAST,soluble
19,MEFYPIHILLSKLEEEIAFQQKMATTYLVSPPKYSPEVIGTVSETLRRISADLKLVSLILGELEEVQERDIKEEALILSSESLSLISLLLPAIEKYAPFFLESMKVERKPILEKLEDVMAEIENAIEKLELSSSREIIRSLEELAQSLEISLKMGERILERES,not soluble
20,MMQISSNGITRLKREEGERLKAYSDSRGIPTIGVGHTGKVDGNSVASGMTITAEKSSELLKEDLQWVEDAISSLVRVPLNQNQYDAMCSLIFNIGKSAFAGSTVLRQLNLKNYQAAADAFLLWKKAGKDPDILLPRRRRERALFLS,soluble
21,MGSDKIHHHHHHMEKLKLMTIVGTRPEIIRLSSTIKACDQYFNQILVHTGQNYDYTLNQIFFDDLELRQPDHYLEAVGSNLGETMGNIIAKTYDVLLREQPDALLILGDTNSCLAAVSAKRLKIPVFHMEAGNRCFDQNVPEEINRKIVDHVSDVNLPYTEHSRRYLLDEGFNKANIFVTGSPMTEVIEAHRDKINHSDVLNKLGLAPAAYILVSAHREENIDNEKNFKSLMNAINDIAKKYKMPVIYSTHPRSWKKIEESKFEFDPLVKQLKPFGFFDYNALQKDAFVVLSDSGTLSEESSILKFPGVLIRTSTERPEVLDKGTVIVGGITYNNLIQSVELAREMQNNNEPMIDAIDYKDTNVSTKVVKIIQSYKDIINRNTWRK,not soluble
22,MIRGWLAEGERMKETSYYSYVVGELPKGCQYCVRGEKLVLFVTGVCPRNCFYCPLSPWRRKDVAYANERPIRKIEDIIEEAKIQEARGAGVTGGDPLARLNRTVEYIRTLKEEFGKKFHIHLYTTGILADKRALSMLYDAGLDEIRFHPDLFEPSSKFLNREIENLKNAFDFDWDVGGEVPAVPGFGDRIKWFAEILDKFGGKFLNINELEYSETNLSNILNRGFKLAGENSFAIKGSLELGLEILEWGEKNTSLYYHLCTAKLKDAVQLRNRLRRMAKNVAKPYMEITEDGTLRFGIAEYEDLEELYKFLVEEAEVPKEWLYINWEKKRIEMPVEVAEELAEAIEGDVKFYIVEEYPTWDRIEVERIPLN,not soluble
23,MSLSIKLIAVDIDGTLVNSQKEITPEVFSAIQDAKEAGVKVVIATGRPIAGVAKLLDDLQLRDQGDYVVTFNGALVQETATGHEIISESLTYEDYLDMEFLSRKLGVHMHAITKDGIYTANRNIGKYTVHESTLVSMPIFYRTPEEMAGKEIVKCMFIDEPEILDAAIEKIPAEFYERYSINKSAPFYLELLTKNVDKGSAITHLAEKLGLTKDETMAIGDEENDRAMLEVVGNPVVMENGNPEIKKIAKYITKTNDESGVAHAIRTWVLEGHHHHHH,soluble
24,MKNPGTHILPKNPECSKQKTLTKQLLLLELFEFQLDAQIQQNTFQLELTIQRRKEHLEIDSVMKIKNRNFANFGMFNSLHIIRFWNLFYNRISAADFPENSGFRMFATEILVKLENIGNVM,not soluble
